# Assay results published in IntAct's records for PubMed 31515488.
# B1: Ligand of Numb protein X 2 (Homo sapiens), Q8N448 (parent)
# chain: MGTTSDEMVSVEQTSSSSLNPLCFECGQQHWTRENHLYNYQNEVDDDLVCHICLQPLLQPLDTPCGHTFCYKCLRNFLQEKDFCPLDRKRLHFKLCKKSSILVHKLLDKLLVLCPFSSVCKDVMQRCDLEAHLKNRCPGASHRRVALERRKTSRTQAEIENENGPTLLDPAGTLSPEADCLGTGAVPVERHLTSASLSTWSEEPGLDNPAFEESAGADTTQQPLSLPEGEITTIEIHRSNPYIQLGISIVGGNETPLINIVIQEVYRDGVIARDGRLLAGDQILQVNNYNISNVSHNYARAVLSQPCNTLHLTVLRERRFGNRAHNHSDSNSPREEIFQVALHKRDSGEQLGIKLVRRTDEPGVFILDLLEGGLAAQDGRLSSNDRVLAINGHDLKYGTPELAAQIIQASGERVNLTIARPGKPQPGNTIREAGNHSSSSQHHTPPPYYSRPSSHKDLTQCVTCQEKHITVKKEPHESLGMTVAGGRGSKSGELPIFVTSVPPHGCLARDGRIKRGDVLLNINGIDLTNLSHSEAVAMLKASAASPAVALKALEVQIVEEATQNAEEQPSTFSENEYDASWSPSWVMWLGLPSTLHSCHDIVLRRSYLGSWGFSIVGGYEENHTNQPFFIKTIVLGTPAYYDGRLKCGDMIVAVNGLSTVGMSHSALVPMLKEQRNKVTLTVICWPGSLV
# B2: L-fucose dehydrogenase (Homo sapiens), Q9BPX1 (parent)
# chain: MATGTRYAGKVVVVTGGGRGIGAGIVRAFVNSGARVVICDKDESGGRALEQELPGAVFILCDVTQEDDVKTLVSETIRRFGRLDCVVNNAGHHPPPQRPEETSAQGFRQLLELNLLGTYTLTKLALPYLRKSQGNVINISSLVGAIGQAQAVPYVATKGAVTAMTKALALDESPYGVRVNCISPGNIWTPLWEELAALMPDPRATIREGMLAQPLGRMGQPAEVGAAAVFLASEANFCTGIELLVTGGAELGYGCKASRSTPVDAPDIPS
# B3: Coiled-coil domain-containing protein 74A (Homo sapiens), Q96AQ1 (parent)
# chain: MSGAGVAAGTRPPSSPTPGSRRRRQRPSVGVQSLRPQSPQLRQSDPQKRNLDLEKSLQFLQQQHSEMLAKLHEEIEHLKRENKDLHYKLIMNQTSQKKDGPSGNHLSRASAPLGARWVCINGVWVEPGGPSPARLKEGSSRTHRPGGKRGRLAGGSADTVRSPADSLSMSSFQSVKSISNSGKARPQPGSFNKQDSKADVSQKADLEEEPLLHNSKLDKVPGVQGQARKEKAEASNAGAACMGNSQHQGRQMGAGAHPPMILPLPLRKPTTLRQCEVLIRELWNTNLLQTQELRHLKSLLEGSQRPQAAPEEASFPRDQEATHFPKVSTKSLSKKCLSPPVAERAILPALKQTPKNNFAERQKRLQAMQKRRLHRSVL
# B4: Spindle and kinetochore-associated protein 3 (Homo sapiens), Q8IX90 (parent)
# chain: MDPIRSFCGKLRSLASTLDCETARLQRALDGEESDFEDYPMRILYDLHSEVQTLKDDVNILLDKARLENQEGIDFIKATKVLMEKNSMDIMKIREYFQKYGYSPRVKKNSVHEQEAINSDPELSNCENFQKTDVKDDLSDPPVASSCISEKSPRSPQLSDFGLERYIVSQVLPNPPQAVNNYKEEPVIVTPPTKQSLVKVLKTPKCALKMDDFECVTPKLEHFGISEYTMCLNEDYTMGLKNARNNKSEEAIDTESRLNDNVFATPSPIIQQLEKSDAEYTNSPLVPTFCTPGLKIPSTKNSIALVSTNYPLSKTNSSSNDLEVEDRTSLVLNSDTCFENLTDPSSPTISSYENLLRTPTPPEVTKIPEDILQLLSKYNSNLATPIAIKAVPPSKRFLKHGQNIRDVSNKEN
# Variants of: B1
# Conditions: with tbb5_human TUBB
row,effect of a mutation on the interaction,Variant
1,with no effect,V145I

# Variants of: B1
# Conditions: with mk09_human MAPK9, P45984
row,effect of a mutation on the interaction,Variant
1,with no effect,V145I
2,with no effect,Y266C

# Variants of: B1
# Conditions: with at2l2_human PHYKPL
row,effect of a mutation on the interaction,Variant
1,with no effect,V145I

# Variants of: B1
# Conditions: with ip6k2_human IP6K2, Q9UHH9
row,effect of a mutation on the interaction,Variant
1,with no effect,V145I

# Variants of: B1
# Conditions: with optn_human OPTN
row,effect of a mutation on the interaction,Variant
1,with no effect,V145I
2,disrupting interaction strength,Y266C

# Variants of: B1
# Conditions: with lrc8e_human LRRC8E
row,effect of a mutation on the interaction,Variant
1,with no effect,S198P

# Variants of: B1
# Conditions: with atpb_human ATP5F1B
row,effect of a mutation on the interaction,Variant
1,with no effect,S198P

# Variants of: B1
# Conditions: with ptcd3_human PTCD3, Q96EY7
row,effect of a mutation on the interaction,Variant
1,with no effect,S198P

# Variants of: B2
# Conditions: with psa1_human PSMA1, P25786
row,effect of a mutation on the interaction,Variant
1,with no effect,A56T
2,with no effect,N31D
3,with no effect,G16W

# Variants of: B2
# Conditions: with sr1ip_human SREK1IP1, Q8N9Q2
row,effect of a mutation on the interaction,Variant
1,with no effect,A56T
2,with no effect,N31D

# Variants of: B2
# Conditions: with ntaq1_human NTAQ1, Q96HA8
row,effect of a mutation on the interaction,Variant
1,with no effect,A56T
2,with no effect,N31D

# Variants of: B2
# Conditions: with phf1_human PHF1, O43189
row,effect of a mutation on the interaction,Variant
1,with no effect,N31D
2,with no effect,G16W

# Variants of: B2
# Conditions: with cah8_human CA8, P35219
row,effect of a mutation on the interaction,Variant
1,with no effect,N31D
2,with no effect,G16W

# Variants of: B3
# Conditions: with mtus2_human MTUS2, Q5JR59
row,effect of a mutation on the interaction,Variant
1,with no effect,G302R

# Variants of: B4
# Conditions: with ska1_human SKA1, Q96BD8
row,effect of a mutation on the interaction,Variant
1,with no effect,T254A
2,with no effect,R396M
3,with no effect,A28V
4,with no effect,D335E
5,with no effect,V187I
